Source: patent US20250154240A1, “ANTI-HUMAN CXCL1 ANTIBODY” (CHIOME BIOSCIENCE INC., priority 2022, published 2025)

T1: human CXCL2 (Homo sapiens, UniProt P19875)
T1 sequence (P19875 35-107): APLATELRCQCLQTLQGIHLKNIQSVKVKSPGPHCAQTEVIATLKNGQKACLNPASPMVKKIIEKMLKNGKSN

T2: human CXCL3 (Homo sapiens, UniProt P19876)
T2 sequence (P19876 35-107): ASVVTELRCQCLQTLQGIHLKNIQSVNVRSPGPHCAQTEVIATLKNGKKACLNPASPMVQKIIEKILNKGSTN

B1: 1A-7H10: mouse monoclonal anti-HuCXCL1 antibody clone; VH SEQ ID NO: 1, VL SEQ ID NO: 5 (antibody, listed as Mus musculus, V domains shown)
VH: QVQLKESGPVLVAPSQSLSITCSVSGFSSTTYGVHWVRQPPGQGLEWLGVIWAGGSTNYNSALMSRLSISKDNSKSQVFLKMNSLQTDDTAMYYCATQYHYPFAYWGQGTLVTVSA
VL: NIVMTQSPKSMSMSVGERVTLSCKASENVGIYVSWYQQKPEQSPKLMIYGASNRNTGVPDRFTGSGSATDFTLTISSVQAEDLADYYCGQSYSYPLTFGAGTKLELK
B2: 028-8-12: human antibody against CXCL1 from the human ADLib technique; VH SEQ ID NO: 25, VL SEQ ID NO: 29 (antibody, listed as Gallus gallus, V domains shown)
VH: EVQLLESGGGLVQPGGSLRLSCAASGFTFSELSMSWVRQAPGKGLEWVSAISGSGGSTYYADSVKGRFTISRDNSKNTLYLQMNSLRAEDTAVYYCAREGGRLEPYYYYYAMDVWGQGTPVTVSS
VL: DIQMTQSPSSLSASVGDRVTITCRASQSISDNLHWYQQKPGKAPKLLIYDASNLESGVPSRFSGSGSGTDFTLTINSLQPEDFATYYCQQYYSTPLTFGQGTKLEIK
B3: 4A-2F7: mouse monoclonal anti-HuCXCL1 antibody clone; VH SEQ ID NO: 9, VL SEQ ID NO: 13 (antibody, listed as Mus musculus, V domains shown)
VH: QVTLKESGPGILKPSQTLSLTCSFSGFSLSTSGMGVDWIRQPSGKGLEWLAHIWWDDDKYYNPSLKSQLTISKDTSRNQVFLKITSVDTADTATYYCARSYGYDMDYYAMDYWGQGTSVTVSS
VL: DIQMTQSPSSLSASLGERVSLTCRASQEISGYLSWLQQKPDGTIKRLIYAASTLDSGVPKRFSGSRSGSDYSLTISSLESEDFADYYCLQYASYPPWTFGGGTKLEIK
B4: 5A-5E11: mouse monoclonal anti-HuCXCL1 antibody clone; VH SEQ ID NO: 17, VL SEQ ID NO: 21 (antibody, listed as Mus musculus, V domains shown)
VH: QVQLQQSGAELVRPGSSVKISCKASGYAFSDYWMNWVKQRPGQGLEWIGQIYPGDGDTNYNGKFKGKGTLTADKSSSTAYMQLNSLTSEDSAVYFCARERDYDVAMDYWGQGTSVTVSS
VL: DIQMTQSPSSLSASLGGKVTITCKASQDINKYIAWFQHKPGKGPRLVIHYTSILQPGIPSRFSGVGSGRDYSFSIRNLEPEDIATYYCLQYDNLPWTFGGGTKLEIK
B5: Hu5A-5E11: humanized antibody VH1/VL1; VH SEQ ID NO: 76, VL SEQ ID NO: 78 (antibody, V domains shown)
VH: QVQLVQSGAEVKKPGSSVKVSCKASGYAFSDYWMNWVRQAPGQGLEWIGQIYPGSGDTNYNAKFKGKGTITADKSTSTAYMELSSLRSEDTAVYYCARERDYDVAMDYWGQGTTVTVSS
VL: DIQMTQSPSSLSASVGDRVTITCKASQDINKYIAWFQQKPGKAPKLVIHYTSILQPGVPSRFSGSGSGTDYTFTISSLQPEDIATYYCLQYDNLPWTFGGGTKVEIK

System: CyCXCL1
Assay: CyCXCL1 binding activity ELISA
Parameters: species or system cynomolgus monkey
Conditions: absorbance to CyCXCL1 relative to absorbance to HuCXCL1
Protocol: Binding activity to cynomolgus monkey CXCL1 (CyCXCL1) was evaluated.
The same procedure as shown in [1-1] above was repeated to prepare a CyCXCL1 protein (antigen), except that the amino acid sequence of a HuCXCL1 protein was replaced with the amino acid sequence of a CyCXCL1 protein (Uniprot registration number: QUEAC3; SEQ ID NO: 82).
The evaluation of binding activity to CyCXCL1 was accomplished by ELISA assay. Absorbance was calculated in the same manner as shown in [2-1] above to evaluate antigen-binding activity, except that the protein immobilized on the plates was changed from a HuCXCL1 protein to a CyCXCL1 protein. An antibody whose absorbance to CyCXCL1 was 80% or more of its absorbance to HuCXCL1 was determined to have cross-reactivity and indicated with “o” while an antibody whose absorbance to CyCXCL1 was less than 80% of its absorbance to HuCXCL1 was indicated with “x” in Table A above.
Target sequence in this assay (as listed by the source): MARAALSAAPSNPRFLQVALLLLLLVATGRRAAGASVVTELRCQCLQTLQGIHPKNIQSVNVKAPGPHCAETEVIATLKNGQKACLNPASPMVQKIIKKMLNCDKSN

Binding activity to CyCXCL1 ELISA	Molecule
∘	B1
∘	B2
∘	B3
∘	B4

System: CyCXCL1
Assay: Ca2+ Flux assay, CyCXCL1 neutralizing activity in AequoScreen/CXCR2 cells
Format: cell-based, cynomolgus monkey
Conditions: CyCXCL1 100 ng per ml; antibody 10 μg per ml
Protocol: For evaluation of neutralizing activity against CyCXCL1, CyCXCL1-induced changes in intracellular calcium ions in AequoScrenn/CXCR2 cells were measured as the luminescence intensity of aequorin.
AequoScrenn/CXCR2 cells were adjusted in the same manner as shown in [2-2] above. After CyCXCL1 was added to 96-well plates in an amount of 100 ng per ml, purified antibodies were each added in an amount of 10 μg per ml, and the plates were allowed to stand at room temperature for 30 minutes. To these plates, the AequoScree/CXCR2 cell suspension was added in a volume of 50 μL per well, immediately followed by measurement of luminescence intensity.
An antibody found to completely suppress CyCXCL1-induced luminescence from aequorin was determined to have cross-reactivity and indicated with “o” while an antibody found to not completely suppress luminescence from aequorin was indicated with “x” in Table A above.
Target sequence in this assay (as listed by the source): as above
Target sequence in this assay (P25025 whole entry partner): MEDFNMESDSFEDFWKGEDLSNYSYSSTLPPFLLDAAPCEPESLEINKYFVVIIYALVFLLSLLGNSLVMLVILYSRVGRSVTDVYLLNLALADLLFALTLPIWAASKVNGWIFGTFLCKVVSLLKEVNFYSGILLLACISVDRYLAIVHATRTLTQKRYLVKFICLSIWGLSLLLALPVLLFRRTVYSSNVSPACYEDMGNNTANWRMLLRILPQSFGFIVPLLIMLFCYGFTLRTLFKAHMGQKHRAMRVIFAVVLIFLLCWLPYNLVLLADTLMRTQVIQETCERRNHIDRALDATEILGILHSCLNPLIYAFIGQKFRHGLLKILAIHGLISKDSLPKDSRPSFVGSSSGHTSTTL

Molecule	CyCXCL1 neutralizing activity Ca^2+ Flux assay
B1	∘
B2	∘
B3	∘
B4	∘

Molecular target: T1, human CXCL2
Assay: Binding to human CXCL2
Conditions: not given

Binding to human CXCL2	Molecule
also bind	B1
also bind	B2
also bind	B3
also bind	B4

Molecular target: T2, human CXCL3
Assay: Binding to human CXCL3
Conditions: not given

Binding to human CXCL3	Molecule
also bind	B1
also bind	B2
also bind	B3
also bind	B4

System: CXCR2-expressing cells
Assay: In vivo migration inhibitory activity test on CXCR2-expressing cells, OCUM-12 orthotopic transplantation (prevention model)
Parameters: species or system mouse
Conditions: 400 μg/head intraperitoneally twice a week, 3 weeks; compared to hIgG1 antibody
Text: (§1) The stomachs after measurement of the tumor size in [3-1] above were excised and fixed overnight at room temperature with a 10% neutral buffered formalin solution (Wako Pure Chemical Industries, Ltd., Japan), followed by replacement with PBS. Then, paraffin embedding and section preparation were outsourced to Applied Medical Research Laboratory, Japan. The prepared gastric tumor sections were immunohistologically stained with an anti-CXCR2 antibody to evaluate in vivo CXCR2 cell migration inhibitory activity. The sections were deparaffinized and rehydrated, and then treated to inactivate endogenous peroxidase. After antigen activation treatment, the sections were blocked with PBS containing 2% skimmed milk and 0.1% Tween-20, and reacted overnight at 4° C. with an anti-CXCR2 antibody (Biorbyt) as a primary antibody, which had been diluted to 0.3 μg/mL with the blocking solution. After washing with PBS containing 0.1% Tween-20, the sections were reacted at room temperature for 1 hour with an HRP-labeled goat anti-rabbit IgG antibody (Abcam) as a secondary antibody. After washing with a washing solution, a simple stain DAB solution (5052, Nichirei Corporation, Japan) was used to cause color development. After images of the stained tissues were captured with an Explore (Olympus Corporation, Japan), imaging software CellSens (Olympus Corporation, Japan) was used to calculate CXCR2-positive cells per unit area.
Navarixin is among small molecular compounds that act on CXCR2 and inhibit CXCL1-CXCR2 signaling. […] Then, using a model with OCUM-12 orthotopic transplantation, the migration inhibition of CXCR2-expressing cells and antitumor activity were evaluated in vivo for Navarixin. As a vehicle, ultrapure water containing 20% 2-hydroxypropyl-β-cyclodextrin (FUJIFILM Wako Pure Chemical Corporation, Japan) was used. Navarixin (MedChemExpress) was dissolved in ultrapure water containing 20% 2-hydroxypropyl-β-cyclodextrin, and orally administered at a dose of 100 mg/kg/day in a schedule of once a day for 5 consecutive days, followed by a 2-day withdrawal.
as §1, with “after measurement were excised” for “after measurement of the tumor size in [3-1] above were excised”, “and 0.1% Tween-20 (hereinafter referred to as the blocking solution), and reacted” for “and 0.1% Tween-20, and reacted”, “been diluted 1667-fold with the” for “been diluted to 0.3 μg/mL with the”, “to calculate positive cells per” for “to calculate CXCR2-positive cells per”
The dose-response relationship between antibody dose and in vivo antitumor activity or CXCR2 migration inhibitory activity was evaluated in a xenograft prevention model with OCUM-12 orthotopic transplantation. A prevention model is a model designed to start antibody administration from the day following tumor transplantation. […]

Molecule	Migration of CXCR2-expressing cells (positive cells per unit area)
B5	significantly suppress the migration of CXCR2-expressing cells

Same assay, conditions: 20 mg/kg intraperitoneally twice a week, 3 weeks; compared to PBS or mouse IgG1

Molecule	Migration of CXCR2-expressing cells (CXCR2-positive cells per unit area in gastric tumor sections)
B1	significantly suppress the migration of CXCR2-expressing cells
B2	significantly suppress the migration of CXCR2-expressing cells
B3	significantly suppress the migration of CXCR2-expressing cells
B4	significantly suppress the migration of CXCR2-expressing cells

Same assay, conditions: prevention model

Molecule	Dose at which the migration suppressive effect tended to reach a plateau
B5	≥ 60 μg/head
